Patent publication US12024544B2, “CCN3 and CCN3 peptides and analogs thereof for therapeutic use” (Rosalind Franklin University of Medicine & Science, priority 2010, dated 2024)
Entries after “also recorded” stand apart in the source; their conditions may differ.

Assays:
BTBR Ob/Ob mouse = BTBR Ob/Ob mouse model of diabetic renal disease; type: in vivo
Method: This was carried out using the BTBR Ob/Ob mouse strain that has a defective leptin receptor that results in increased appetite. As a result it rapidly gains weight over the control strain and becomes hyperglycemic at about one month of age, going on to develop renal disease resembling that in humans. This is regarded by some to be the rodent model best mirroring renal disease in humans as a complication of diabetes. Animals were treated with either rCCN3 (SEQ. ID. NO: 67) or CCNp38 (SEQ. ID. NO: 38) beginning at 9 weeks of age, when early renal disease has been documented. The disease was allowed to develop for 9 weeks, then treatment started. Mice were treated 3 times per week for 8 weeks. At 17 weeks, blood and urine were collected, and animals sacrificed with organ samples collected. The effect of treatment with either CCN3 (2 concentrations, 2 or 20× the circulating amounts) or mimic peptide (CCNp38, 2 concentrations, 20 or 200× the equivalent molar circulating concentration of CCN3) was tested. Assays to determine the effect of CCN3 or peptide on expression of target fibrosis genes and clinical pathology were determined using methods as previously described (Riser, Amer J Pathology 2009) and (McIntosh, L M, et al., Selective CCR2-targeted macrophage depletion ameliorates experimental mesangioproliferative glomerulonephritis, Clinical and Experimental Immunology, 2008, 155, 295-303).
This was carried out using the BT/BR Ob/Ob mouse strain that has a defective leptin receptor that results in increased appetite. As a result mice rapidly gain weight over the control strain and become hyperglycemic at about one month of age going on to develop renal disease resembling that in humans. This is regarded by some to be the best rodent model for mirroring renal disease in humans as a complication of diabetes. […] Animals were treated with either rCCN3 (SEQ. ID. NO: 67) or CCNp38 (SEQ. ID. NO: 38) beginning at 9 weeks of age, when early renal disease has been documented. Mice were treated for 8 weeks, then sacrificed and measured for renal disease and other complications, and the effect drug treatment. Test animals were documented to have developed diabetes by 9 weeks, and were randomized for treatment, thus providing equivalent blood glucose levels in each treated group.

MMP-1 = MMP-1 production by human skin fibroblasts; type: cell-based
Source text: To test this we used a cell culture model of skin healing/scarring, which employed the use of primary human skin fibroblasts derived from foreskins collected post circumcision. These have been used extensively in the past to grown in culture and treated with agents that are known to drive wound healing and or scarring. We were also interested in a rare form of skin fibrosis/scarring that can lead to systemic disease and death known as nephrogenic systemic fibrosis (NSF). NSF is a complication of NMR diagnostics in renal impaired patients, where gadolinium (GAD), a heavy metal, is used as a contrast agent, but in some cases appears to deposit in skin. Although the mechanism for development of skin fibrosis and subsequent systemic disease is not yet completely understood, we have developed a model that has allowed elucidation of the probable pathway to skin fibrosis (Bhagavathula, N., M. K. Dame, M. DaSilva, W. Jenkins, M. N. Aslam, P. Perone and J. Varani (2010)). “Fibroblast response to gadolinium: role for platelet-derived growth factor receptor.” Invest Radiol 45(12): 769-777). This disease is characterized as a hyperproliferative disease, and in our model it was shown that PDGF produced by resident skin fibroblasts are stimulated by GAD to increase their production of PDGF which acts to induce proliferation and the increased production of MMPs, regulators of ECM breakdown and thus turnover, including the major MMP, MMP-1. At the same time tissue inhibitors of MMPs (TIMPs) are also affected by exposure to GAD. […] It appears that local fibroblasts then respond to this increased TGF-beta by increasing their production of ECM, including predominantly collagen type 1.
We examined the role of CCN3 and CCNp in fibroproliferative/fibrotic responses in human dermal fibroblasts exposed to Omniscan, one of the gadolinium-based contrast agents associated with development of nephrogenic systemic fibrosis. These studies were carried out as we have previously described (Riser, B. L., N. Bhagavathula, P. Perone, K. Garchow, Y. Xu, G. J. Fisher, F. Najmabadi, D. Attili and J. Varani (2012)). “Gadolinium-induced fibrosis is counter-regulated by CCN3 in human dermal fibroblasts: a model for potential treatment of nephrogenic systemic fibrosis.” J Cell Commun Signal 6(2): 97-105.). In our studies, human dermal fibroblasts were exposed to Omniscan; or to PDGF and TGF-β1 as controls. Cellular proliferation was assessed along with MMP-1 (by ELISA and gelatin zymography), TIMP-1 (by ELISA) and COL1 (by ELISA) in the absence and presence of CCN3 and CCNp. CCN3 and CCNp38 was added to cells at 10 nM concentration and at the same time as PDGF. In parallel, CCN3 production was assessed in control and Omniscan-treated cells. In most case the results shown (each bar) are the mean of 3-5 separate experiments, using fibroblasts from different donors. CCN3 was produced in our laboratory from the human embryonic kidney cell line (HEK-293) transfected with the complete human CCN3 gene, and producing an approximate 55 kDa, full-length CCN3 product. A second source of CCN3 was obtained from Pepro Tech Corporation (Rocky Hill, NJ) and is produced in a prokaryote cell line.
Next we created and tested for efficacy, additional CCNp including those with the cysteines intact (native sequence) from CCNp37 and CCNp38 and those that were modified by either shortening the peptide by 1 or 2 amino acids or lengthening by one amino acid. These agents were added to human skin fibroblasts in increasing concentrations from 1 nM to 100 nM and compared to the equal concentration of CCN3 (SEQ. ID. NO: 67). They were added just prior to the addition of either TGF-beta or PDGF, depending on the experiment.

B1: CCN3: full-length recombinant human CCN3 protein (SEQ. ID. No. 67), commercial (Pepro Tech) or made in HEK-293 (protein)
chain: MQVAATQRCPPQCPGRCPATPPTCAPGVRAVLDGCSCCLVCARQRGESCSDLEPCDESSGLYCDRSADPSNQTGICTAVEGDNCVFDGVIYRSGEKFQPSCKFQCTCRDGQIGCVPRCQLDVLLPEPNCPAPRKVEVPGECCEKWICGPDEEDSLGGLTLAAYRPEATLGVEVSDSSVNCIEQTTEWTACSKSCGMGFSTRVTNRNRQCEMLKQTRLCMVRPCEQEPEQPTDKKGKKCLRTKKSLKAIHLQFKNCTSLHTYKPRFCGVCSDGRCCTPHNTKTIQAEFQCSPGQIVKKPVMVIGTCTCHTNCPKNNEAFLQELELKTTRGKM
BTBR Ob/Ob mouse; 17 weeks of diabetes, 8 weeks of treatment 3 times per week, FIG. 35
  effect on elevated plasma creatinine: reduces or blocks this pathology; also recorded: reduces or blocks this impairment
BTBR Ob/Ob mouse; 17 weeks of diabetes, 8 weeks of treatment, FIG. 36
  effect on elevated albumin to creatinine ratio: greatly blocks this pathology; also recorded: greatly blocks this renal damage
BTBR Ob/Ob mouse; 17 weeks of diabetes, 8 weeks of treatment, FIG. 37
  effect on mesangial expansion (PAS staining, image analysis): greatly block this pathology and treats the disease; also recorded: greatly blocks this pathology
BTBR Ob/Ob mouse; kidney, 8 weeks of treatment, FIG. 38
  effect on increased renal mRNA levels for CCN2: greatly reduces or blocks the increase
BTBR Ob/Ob mouse; kidney, 8 weeks of treatment, FIG. 39
  effect on increased renal mRNA levels for Col1A2: greatly reduces or blocks the increase
MMP-1; 1 nM, FIG. 25
  block of PDGF stimulated MMP-1 production: able to block little or no MMP-1 production
MMP-1; 10 nM, FIG. 26
  reduction in PDGF stimulated MMP-1 production: 27%
MMP-1; 100 nM, FIG. 27
  reduction in PDGF stimulated MMP-1 production: 30%
MMP-1; PDGF, 10 nM, FIG. 17
  block of PDGF-induced increase in MMP-1 activity: able to block that increase
MMP-1; TGF-beta (no stimulating effect), FIG. 18
  effect on MMP-1 with TGF-beta: no effect
